Measurements taken from US7943731 (MIT, dated 2011).

Target: the molecule itself
Assay: sedimentation equilibrium, self-association in solution without DNA
Procedure: Sedimentation Equilibrium. Peptide samples at three concentrations, ranging from ≈10 µM to ≈100 µM, were centrifuged to equilibrium in a Beckman Optima XL-A at 20,000 and 30,000 rpm at 4° C. in a buffer containing 15 mM Tris, pH 7.8, 150 mM KCl, 5 mM MgCl_2, 20 µM ZnSO_4, and 0.2 mM DTT. Solvent density and partial specific volumes of peptides were calculate at described (13). The sedimentation data were analyzed by methods described in refs. 14 and 15, using the program NONLIN (16).

B1: Zif12 peptide (amino acids 2-59 of Zif268, Gly-Ser dipeptide at the N terminus) (other)
chain: not shown
notes: range 2-59; No N-terminal peptide extension; also called isolated Zif12 domain; Zif1-Zif2 construct
B1: no binding (tested: ≈100 µM).
